# Assay results published in the DeepSol protein solubility set.
# Assay: soluble on expression in E. coli; label from the status in PepcDB or PDB records
row,Sequence,soluble on expression in E. coli
1,LLLGDEAIAQAALDAGLSGVYAYPGTPSTEITEYIQMAPITSERNIHNRWCANEKTAMEAALGMSFVGKRALVCMKHVGMNVAADCFINSAITGVKGGLIVVAADDPSMHSSQNEQDSRFYGDFSLIPMYEPSNQQEAYDMVYNGFEFSEKIGEPILMRMVTRLAHSRSGVENKAQKPQNEISFSEDPRQFILLPGNARKRYKVLLTRQEEFIKASEESPYNRYIDGPNKKTGIVACGIGYNYLMENYPEGCEYPVLKVGQYPLPKKQLMQLIDACDEILVLEDGQPFVEKQLKGYLGIGLKVKGRLDGTLSQDGELNPDTVARALGKENSSEFNVPNIVEMRPPALCEGCGHRDMYITLTQVLKEEYPTHKVFSDIGCYTLGANAPFNAINSCVDMGASITMAKGASDGGLHPAVAVIGDSTFTHSGMTGLLDCVNENANVTIVISDNETTAMTGGQDSAGTGRLEAICAGLGVDPAHIRVVVPLK,not soluble
2,LLPGAPDCRVYGWIYSSPTPGRAWVLLVHGLGGDHTFFEEPLGGYRVAYDLALRGFKVLAIDAAGHGESCIPGGESWRDKALTLEPGEFFLYHVYLSGVRAVEAALELGAEPG,not soluble
3,LLVDKKVSVNDVDIGLISLQYLNIIANYTNKKAIEKITDYLVITSKILAKKADNLLNDHQEESVLEYDLATNNFRDKMIANLVEHKRYCDSLGEFEKLRVNRLAYFSKANEMEQFIKTANDQLVTVEDQLPNYISVLKLFHAMNKLLEMRLSSLLTNKNITIKELSVEQVQKELVLAIKQFNYQTVSLKRVLLKLN,not soluble
4,LPENGPEFKIEISLLKDQARVMIDTTGPSLFKRGYRTEKGGAPIKENMAAAIILLSNWFPDKPFVDPTCGSGTFCIEAAMIGMNIAPGFNRDFAFEEWPWVDEALVTRVRNEADEQADYDIQLDISGFDFDGRMVEIARKNAREVGLEDVVKLKQMRLQDFKTNKINGVLISNPPYGERLLDDKAVDILYNEMGETFAPLKTWSQFILTNDTDFEQKFGRKADKKRKLYNGSLKVDLYQFYGQRVKRVLR,not soluble
5,LPKNLMVRLRSNTEPLSKKLRVVADYVLENAHEVQYQTITDLAFNTKTSEATVVRLCRDLGYKGYSDFRMALAVDLSQSANQSQPKMDGDICEVSAQSAVDSLMDTAKLIDRAALNRICELVHGAK,not soluble
6,LPQSVSRAAITAAYRRPETEAVSMLLEQARLPQPVAEQAHKLAYQLADKLRNQKNASGRAGMVQGLLQEFSLSSQEGVALMCLAEALLRIPDKATRDALIRDKISNGNWQSHIGRSPSLFVNAATWGLLFTGKLVSTHNEASLSRSLNRIIGKSGEPLIRKGVDMAMRLMGEQFVTGETIAEALANARKLEEKGFRYSYDMLGEAALTAADAQAYMVSYQQAIHAIGKASNGRGIYEGPGISIKLSALHPRYSRAQYDRVMEELYPRLKSLTLLARQYDIGINIDAEESDRLEISLDLLEKLCFEPELAGWNGIGFVIQAYQKRCPLVIDYLIDLATRSRRRLMIRLVKGAYWDSEIKRAQMDGLEGYPVYTRKVYTDVSYLACAKKLLAVPNLIYPQFATHNAHTLAAIYQLAGQNYYPGQYEFQCLHGMGEPLYEQVTGKVADGKLNRPCRIYAPVGTHETLLAYLVRRLLENGANTSFVNRIADTSLPLDELVADPVTAVEKLAQQEGQTGLPHPKIPLPRDLYGHGRDNSAGLDLANEHRLASLSSALLNSALQKWQALPMLEQPVAAGEMSPVINPAEPSSSVDKLAAALEHHHHHH,soluble
7,LQQQEEETYADACDEFLDPIMSTLMCDPVVLPSSRVTVDRSTIARHLLSDQTDPFNRSPLTMDQIRPNTELKEKIQRWLAERKQQ,soluble
8,LRPEDFTTLLQTADFRLRLLEAIAAATRRVYICALYLENEEAGQEMLDALYRAKQRNPQLDVRVMVDWHRAQRGRIGEDQSHCNASWYREEAARRELDIPIYGVPVQTRELFGVLHLKGFVIDDTVFYSGASLNNVYLHKLDKYRFDRYHLIRSPELADAMAGFMAEQFFNDPAVFRLD,not soluble
9,LSQEETELELLRQFDLAWQYGPCTGITRLQRWHRAEQMGLKPPVEVYQVLKTHPEDSRFQCSLWHLYPL,not soluble
10,LSSLLKAANLARSTYYYQMATGQAEDRHGALKERIQHIYAQHKGRYGYRRITATLRRAGTLVNHKTVQRLMSALQLKSLVRPKKYRSYLGQVGRVAPNLLQREFEASKPNEKWVTDVTEFNVGGKKLYLSPVLDLYNGEIVAWQTSERPDYTLIREMLDKALRKLRPCETPMLHSDQGWPYQMAAYRRKLAARGLRQSMSRKGNCLDNAAMESFFGTLKSECFRLERFADIDQLRRAIAEYIRYYNHERIKIKLKGLSPVQYRTQPLAA,soluble
11,LTFSLNFTNKSNDIYGTGWLFDWKGDEKALGIDGSFVPSITSNIDNSLLKDDQFTVYLATNLHVADALRNDQDYEPYKKDQNKQDFTENTKTEFFSLGK,soluble
12,LTQPLDHRHPEKGSFRQRVIVGHVGYDRPTVIVTEGYGAGYALRPTYREELSELFDANMIFVEHRYFLESTPEPCDWQYLTAENSAEDLHAVTTAFKTLYPGKWISTGISKGGQTSLLYRVFFPDDVDVSVPYVAPLCYAREDGRHEPFLRRVGTEADRKKIEDFQLEVLKRKARLLPRFEKMCTEKNYTFRAPLEEIYDFCVLEYSFSIWQWGTDIRSIPETSASDDTLLDHLLAISGPSYFIVDSPTLSFFVQAARELGYYGYDIAPFKPYLSIKTSKDYLRRLMLPEDMRKMKFDKTLSNKIVRFLKKNDPKMIFIYGQNDPWTAAGVTWLKNKKNIHVFVEPGGSHLARIGTMSEDQKQKVMSLLRGWLEE,not soluble
13,LVFDEEGNSSWIATDTVKVAASRPVELNPFYIDTVYEVSGKKIAYMVYNEFSTGPNNQATDTEYREQMKQIFARFKGQSPDAFILDLRYNPGGYLSCATDLGSYLAPAADLGKVFCTTLYNDISDPQKIDFPLNTGLASENLNLSKLYVLTSKFTASASEAVINCLRPYIGTENVVVIGETTVGKNVAMEPYQDERYNFILWPVVAYVLNSAGQANYVNGITPDFTLSER,not soluble
14,MAAAAELRLLEKSLGLKPGNKYSAQGERQIPVLQTNNGPSLMGLSTIATHLVKQASKEHLLGSTAEEKAMVQQWLEFRVTRVDGHSSKEDTQTLLKDLNSYLEDKVYLAGHNITLADILLYYGLHRFIVDLTVQEKEKYLNVSRWFCHIQHYPDIRQHLSSIVFIKNRLYANSH,not soluble
15,MAAEKKVFVIFDHQEQRHDQPWPSYHIEVPRRLDAILERLNTTKLLTDPRIEHIPRREAEESEILAVHTKRYVDDVKSTETMTVEQQESFCTKYEDIYVNSATWHRAKLAAGASIDLMTSVMAAKRPGIAFIRPPGHHAMPDEGCGFCIFNNVAIAAKAAIQNGQKVLIVDYDVHAGNGTQECVEQMGEGNVQLISIHRYENGHFWPNMPQTGIYHNYKNTINLPLNTIGLTDADYHALFTHIILPTIHAFQPDLLLVSSGFDASIGDPEGSMQVTPAGFATMIRMLIDTGIPVAALLEGGYFLDALAADSEWVLRALLGEEIPRIRVEKIHSAIADTIGRVVKRYEGSCPFFKKVQELRGILGCRVAEEDQQEEATDYTGERTVHPPYETRGIYTPFTEQKVAEFKDQLESILASYTTPPDFSAETEAFHSAIAPHSSEINDFYFGVHEDKILLGTSPAVRLFFELLFTAPYDPKHTIKLYGKVKPEDFGKIELDSRSLGEMKNISIFNNLPIFQL,not soluble
16,MAAHSIFTTTSTTNSFLYPISSSSSSPNINSSFLGVSLNVNAKFGQSLTLYAVTTPKPLTVFAATKKAVAVLKGNSNVEGVVTLSQDDDGPTTVNVRITGLAPGLHGFHLHEYGDTTNGCMSTGAHFNPNKLTHGAPGDEIRHAGDLGNIVANADGVAEVTLVDNQIPLTGPNSVVGRALVVHELEDDLGKGGHELSLTTGNAGGRLACGVVGLTPI,soluble
17,MAAIDLNSDLGESYGAWRMGDDEAMLAIVSSANIACGFHAGDPAGIYRTVKAAAEKGVVVGAHVSYPDRVGFGRRDLDATSEELIADVIYQIGALKGVAAAAGTTVRYVKPHGALYNRIANDAKQGQAVIDGIKAIDPSLVLMGLANAPILDLARKAGLAVVAEAFADRAYTPEGQLVSRREAGAVLHDAAKIAERMVQLAREGTLEAIDGSIIKIEAQSICVHGDSPGAVAIAQEIRRRFEADGIAIRSFASDRLEHHHHHH,not soluble
18,MAAKDRIQAIKQMVANDKKVTVSNLSGIFQVTEETIRRDLEKLEDEGFLTRTYGGAVLNTAVLTENIHFYKRASSFYEEKLLIARKALPFIDNKTTMAADSSSTVMELLKLLQDRSDLTLLTNSAEAIHVLAQSEIKVVSTGGELNKNTLSLQGRITKEIISRYHVDIMVMSCKGLDINSGALDSNEAEAEIKKTMIRQATEVALLVDHSKFDRKAFVQLADFSHINYIITDKSPGAEWIAFCKDNNIQLVWLEHHHHHH,soluble
19,MAAPEAEVLSSAAVPDLEWYEKSEETHASQIELLETSSTQEPLNASEAFCPRDCMVPVVFPGPVSQEGCCQFTCELLKHIMYQRQQLPLPYEQLKHFYRKPSPQAEEMLKKKPRATTEVSSRKCQQALAELESVLSHLEDFFARTLVPRVLILLGGNALSPKEFYELDLSLLAPYSVDQSLSTAACLRRLFRAIFMADAFSELQAPPLMGTVVMAQGHRNCGEDWFRPKLNYRVPSRGHKLTVTLSCGRPSIRTTAWEDYIWFQAPVTFKGFRE,soluble
20,MAAQKKIPLRKCVVTGEMKPKREMVRIVRSKEGEVSIDPTGKKAGRGAYITLDPECILQAKKKNILARHLKADIDDAIYDELLALAEKEKQAGHEA,soluble
21,MAASWRLGCDPRLLRYLVGFPGRRSVGLVKGALGWSVSRGANWRWFHSTQWLRGDPIKILMPSLSPTMEEGNIVKWLKKEGEAVSAGDALCEIETDKAVVTLDASDDGILAKIVVEEGSKNIRLGSLIGLIVEEGEDWKHVEIPKDVGPPPPVSKPSEPRPSPEPQISIPVKKEHIPGTLRFRLSPAARNILEKHSLDASQGTATGPRGIFTKEDALKLVQLKQTGKITESRPTPAPTATPTAPSPLQATAGPSYPRPVIPPVSTPGQPNAVGTFTEIPASNIRRVIAKRLTESKSTVPHAYATADCDLGAVLKVRQDLVKDDIKVSVNDFIIKAAAVTLKQMPDVNVSWDGEGPKQLPFIDISVAVATDKGLLTPIIKDAAAKGIQEIADSVKALSKKARDGKLLPEEYQGGSFSISNLGMFGIDEFTAVINPPQACILAVGRFRPVLKLTEDEEGNAKLQQRQLITVTMSSDSRVVDDELATRFLKSFKANLENPIRLA,soluble
22,MAATARRGWGAAAVAAGLRRRFCHKLKNPYTIKKQPLHQFVQRPLFPLPAAFYHPVRYMFIQTQDTPNPNSLKFIPGKPVLETRTMDFPTPAAAFRSPLARQLFRIEGVKSVFFGPDFITVTKENEELDWNLLKPDIYATIMDFFASGLPLVTEETPSGEAGSEEDDEVVAMIKELLDTRIRPTVQEDGGDVIYKGFEDGIVQLKLQGSCTSCPSSIITLKNGIQNMLQFYIPEVEGVEQVMDDESDEKEANSP,soluble
23,MAATITDDIVATVLESIEEKSYEDEKEKAGMIKDEANQFFKDQVYDVAADLYSVAIEIHPTAVLYGNRAQAYLKKELYGSALEDADNAIAIDPSYVKGFYRRATANMALGRFKKALTDYQAVVKVCPNDKDARAKFDECSKIVRRQKFEAAISTDHDKKTVAETLDINAMAIEDSYDGPRLEDKITKEFVLQLIKTFKNQQKLHKKYAFKMLLEFYNYVKSLPTMVEITVPTGKKFTICGDVHGQFYDLCNIFEINGYPSETNPYLFNGDFVDRGSFSVETIFTMIGFKLLYPNHFFMSRGNHESDVMNKMYGFEGEVKAKYTQQMCDMFTETFCWLPLCHLINEKIFVCHGGLFKEDGVTLEDIRKTDRNRQPPDEGIMCDLLWEKNWKNLKILYPDGKINKNSNCQPKTCKNASDPQPINGRSPSKRGVGCQFGPDVTSKWCETNGIEYVVRSHEVKPEGYEMHHNGQCFTVFSAPNYCDQMNNKGAFITITGDNLTPRFTPFDAVPHPKLPPMAYANSLFGFN,not soluble
